Laboratory results taken from patent US20140087995A1 (published 2014).
Numbered stars: 1 amine (or outer) side, 2 acyl side, 3 side chain; on linkers, the order of the positions; unused ones are H or OH. Bridge positions count the residues as written; N and C are the ends. Side chains are listed from the residue outwards. Ends that are not written are not given here. * marks the point of attachment. C20 diacid = O=C(O)CCCCCCCCCCCCCCCCCCC(=O)*; γGlu = O=C(O)[C@H](CCC(=O)[*:2])N[*:1]; AEEA = NCCOCCOCC(=O)O

T1: rat amylin receptor (rat calcitonin receptor + rat RAMP 3) (rat, UniProt P32214 25-516; Q9JJ73 23-147)
T1 construct: whole, on cells; Cell membranes of transiently transfected BHK tk'ts 13 cells (Assay VI); also called rAmylin-R; rat amylin 3(a) receptor
T1 sequence (looked up) 1: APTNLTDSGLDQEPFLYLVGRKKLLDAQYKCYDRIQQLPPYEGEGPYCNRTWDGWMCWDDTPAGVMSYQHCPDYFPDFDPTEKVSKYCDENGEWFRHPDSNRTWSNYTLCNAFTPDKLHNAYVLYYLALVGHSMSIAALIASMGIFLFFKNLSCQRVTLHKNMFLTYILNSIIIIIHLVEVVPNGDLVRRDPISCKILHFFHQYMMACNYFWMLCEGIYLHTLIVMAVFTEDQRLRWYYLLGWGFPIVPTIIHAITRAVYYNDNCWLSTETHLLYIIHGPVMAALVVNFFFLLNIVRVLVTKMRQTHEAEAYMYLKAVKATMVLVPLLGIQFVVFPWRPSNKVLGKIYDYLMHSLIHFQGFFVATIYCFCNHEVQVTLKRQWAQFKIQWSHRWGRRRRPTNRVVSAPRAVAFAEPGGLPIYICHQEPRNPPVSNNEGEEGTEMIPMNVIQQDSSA
T1 sequence (looked up) 2: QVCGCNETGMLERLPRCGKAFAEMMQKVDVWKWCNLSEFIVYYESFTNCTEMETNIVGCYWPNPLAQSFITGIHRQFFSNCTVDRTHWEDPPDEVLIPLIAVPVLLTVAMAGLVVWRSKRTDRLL

T2: rat calcitonin receptor (rat, UniProt P32214 25-516)
T2 construct: whole, on cells; Cell membranes of transiently transfected BHK tk'ts 13 cells (Assay VIII); also called rCTR; rCT
T2 sequence (looked up): T1 sequence (looked up) 1

T3: human calcitonin receptor (human, UniProt P30988 25-474)
T3 construct: whole, on cells; Cell membranes of a stably transfected BHK cell line (Assay VII); also called hCTR; hCT
T3 sequence (looked up): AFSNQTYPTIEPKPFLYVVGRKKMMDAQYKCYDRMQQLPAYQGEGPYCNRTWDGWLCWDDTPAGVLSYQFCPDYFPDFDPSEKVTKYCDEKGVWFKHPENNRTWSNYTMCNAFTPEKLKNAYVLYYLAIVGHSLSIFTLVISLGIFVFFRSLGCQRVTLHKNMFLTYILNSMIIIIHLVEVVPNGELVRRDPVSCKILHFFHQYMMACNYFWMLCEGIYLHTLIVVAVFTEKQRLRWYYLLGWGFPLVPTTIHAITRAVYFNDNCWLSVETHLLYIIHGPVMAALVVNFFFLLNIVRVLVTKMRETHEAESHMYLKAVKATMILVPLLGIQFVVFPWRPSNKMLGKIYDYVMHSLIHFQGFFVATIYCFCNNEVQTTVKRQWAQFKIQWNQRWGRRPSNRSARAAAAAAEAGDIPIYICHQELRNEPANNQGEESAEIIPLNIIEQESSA

B1: N^ε1-[2-[2-[2-[[2-[2-[2-[[(4S)-4-carboxy-4-(19-carboxynonadecanoylamino)butanoyl]amino]ethoxy]ethoxy]acetyl]amino]ethoxy]ethoxy]acetyl]-[Arg17,Pro21,Pro27,Glu35 … (peptide)
peptide: K([AEEA-AEEA-γGlu-C20 diacid])CNTATCATQRLANFLRHSSPNFGAIPSSTNVGSETY-NH2
modifications: disulfide 2-7; N-terminus assumed
SMILES: CC[C@H](C)[C@H](NC(=O)[C@H](C)NC(=O)CNC(=O)[C@H](Cc1ccccc1)NC(=O)[C@H](CC(N)=O)NC(=O)[C@@H]1CCCN1C(=O)[C@H](CO)NC(=O)[C@H](CO)NC(=O)[C@H](Cc1c[nH]cn1)NC(=O)[C@H](CCCNC(=N)N)NC(=O)[C@H](CC(C)C)NC(=O)[C@H](Cc1ccccc1)NC(=O)[C@H](CC(N)=O)NC(=O)[C@H](C)NC(=O)[C@H](CC(C)C)NC(=O)[C@H](CCCNC(=N)N)NC(=O)[C@H](CCC(N)=O)NC(=O)[C@@H](NC(=O)[C@H](C)NC(=O)[C@@H]1CSSC[C@H](NC(=O)[C@@H](N)CCCCNC(=O)COCCOCCNC(=O)COCCOCCNC(=O)CC[C@H](NC(=O)CCCCCCCCCCCCCCCCCCC(=O)O)C(=O)O)C(=O)N[C@@H](CC(N)=O)C(=O)N[C@@H]([C@@H](C)O)C(=O)N[C@@H](C)C(=O)N[C@@H]([C@@H](C)O)C(=O)N1)[C@@H](C)O)C(=O)N1CCC[C@H]1C(=O)N[C@@H](CO)C(=O)N[C@@H](CO)C(=O)N[C@H](C(=O)N[C@@H](CC(N)=O)C(=O)N[C@H](C(=O)NCC(=O)N[C@@H](CO)C(=O)N[C@@H](CCC(=O)O)C(=O)N[C@H](C(=O)N[C@@H](Cc1ccc(O)cc1)C(N)=O)[C@@H](C)O)C(C)C)[C@@H](C)O
notes: Acylated analogue of human amylin; also called compound 25
B2: N^ε1-[(4S)-4-carboxy-4-(19-carboxynonadecanoylamino)butanoyl]-[Arg17,Pro21,Pro27,Glu35]-h-amylin (peptide)
peptide: K([γGlu-C20 diacid])CNTATCATQRLANFLRHSSPNFGAIPSSTNVGSETY-NH2
modifications: disulfide 2-7; N-terminus assumed
SMILES: CC[C@H](C)[C@H](NC(=O)[C@H](C)NC(=O)CNC(=O)[C@H](Cc1ccccc1)NC(=O)[C@H](CC(N)=O)NC(=O)[C@@H]1CCCN1C(=O)[C@H](CO)NC(=O)[C@H](CO)NC(=O)[C@H](Cc1c[nH]cn1)NC(=O)[C@H](CCCNC(=N)N)NC(=O)[C@H](CC(C)C)NC(=O)[C@H](Cc1ccccc1)NC(=O)[C@H](CC(N)=O)NC(=O)[C@H](C)NC(=O)[C@H](CC(C)C)NC(=O)[C@H](CCCNC(=N)N)NC(=O)[C@H](CCC(N)=O)NC(=O)[C@@H](NC(=O)[C@H](C)NC(=O)[C@@H]1CSSC[C@H](NC(=O)[C@@H](N)CCCCNC(=O)CC[C@H](NC(=O)CCCCCCCCCCCCCCCCCCC(=O)O)C(=O)O)C(=O)N[C@@H](CC(N)=O)C(=O)N[C@@H]([C@@H](C)O)C(=O)N[C@@H](C)C(=O)N[C@@H]([C@@H](C)O)C(=O)N1)[C@@H](C)O)C(=O)N1CCC[C@H]1C(=O)N[C@@H](CO)C(=O)N[C@@H](CO)C(=O)N[C@H](C(=O)N[C@@H](CC(N)=O)C(=O)N[C@H](C(=O)NCC(=O)N[C@@H](CO)C(=O)N[C@@H](CCC(=O)O)C(=O)N[C@H](C(=O)N[C@@H](Cc1ccc(O)cc1)C(N)=O)[C@@H](C)O)C(C)C)[C@@H](C)O
notes: Acylated analogue of human amylin; also called compound 27
B3: N^ε1-[2-[2-[2-[[(4S)-4-carboxy-4-(19-carboxynonadecanoylamino)butanoyl]amino]ethoxy]ethoxy]acetyl]-[Arg17,Pro21,Pro27,Glu35]-h-amylin (peptide)
peptide: K([AEEA-γGlu-C20 diacid])CNTATCATQRLANFLRHSSPNFGAIPSSTNVGSETY-NH2
modifications: disulfide 2-7; N-terminus assumed
SMILES: CC[C@H](C)[C@H](NC(=O)[C@H](C)NC(=O)CNC(=O)[C@H](Cc1ccccc1)NC(=O)[C@H](CC(N)=O)NC(=O)[C@@H]1CCCN1C(=O)[C@H](CO)NC(=O)[C@H](CO)NC(=O)[C@H](Cc1c[nH]cn1)NC(=O)[C@H](CCCNC(=N)N)NC(=O)[C@H](CC(C)C)NC(=O)[C@H](Cc1ccccc1)NC(=O)[C@H](CC(N)=O)NC(=O)[C@H](C)NC(=O)[C@H](CC(C)C)NC(=O)[C@H](CCCNC(=N)N)NC(=O)[C@H](CCC(N)=O)NC(=O)[C@@H](NC(=O)[C@H](C)NC(=O)[C@@H]1CSSC[C@H](NC(=O)[C@@H](N)CCCCNC(=O)COCCOCCNC(=O)CC[C@H](NC(=O)CCCCCCCCCCCCCCCCCCC(=O)O)C(=O)O)C(=O)N[C@@H](CC(N)=O)C(=O)N[C@@H]([C@@H](C)O)C(=O)N[C@@H](C)C(=O)N[C@@H]([C@@H](C)O)C(=O)N1)[C@@H](C)O)C(=O)N1CCC[C@H]1C(=O)N[C@@H](CO)C(=O)N[C@@H](CO)C(=O)N[C@H](C(=O)N[C@@H](CC(N)=O)C(=O)N[C@H](C(=O)NCC(=O)N[C@@H](CO)C(=O)N[C@@H](CCC(=O)O)C(=O)N[C@H](C(=O)N[C@@H](Cc1ccc(O)cc1)C(N)=O)[C@@H](C)O)C(C)C)[C@@H](C)O
notes: Acylated analogue of human amylin; also called compound 26
B4: N^ε1-[(4S)-4-carboxy-4-(19-carboxynonadecanoylamino)butanoyl]-[Arg17,Pro21,Pro27,Lys35]-h-amylin (peptide)
peptide: K([γGlu-C20 diacid])CNTATCATQRLANFLRHSSPNFGAIPSSTNVGSKTY-NH2
modifications: disulfide 2-7; N-terminus assumed
SMILES: CC[C@H](C)[C@H](NC(=O)[C@H](C)NC(=O)CNC(=O)[C@H](Cc1ccccc1)NC(=O)[C@H](CC(N)=O)NC(=O)[C@@H]1CCCN1C(=O)[C@H](CO)NC(=O)[C@H](CO)NC(=O)[C@H](Cc1c[nH]cn1)NC(=O)[C@H](CCCNC(=N)N)NC(=O)[C@H](CC(C)C)NC(=O)[C@H](Cc1ccccc1)NC(=O)[C@H](CC(N)=O)NC(=O)[C@H](C)NC(=O)[C@H](CC(C)C)NC(=O)[C@H](CCCNC(=N)N)NC(=O)[C@H](CCC(N)=O)NC(=O)[C@@H](NC(=O)[C@H](C)NC(=O)[C@@H]1CSSC[C@H](NC(=O)[C@@H](N)CCCCNC(=O)CC[C@H](NC(=O)CCCCCCCCCCCCCCCCCCC(=O)O)C(=O)O)C(=O)N[C@@H](CC(N)=O)C(=O)N[C@@H]([C@@H](C)O)C(=O)N[C@@H](C)C(=O)N[C@@H]([C@@H](C)O)C(=O)N1)[C@@H](C)O)C(=O)N1CCC[C@H]1C(=O)N[C@@H](CO)C(=O)N[C@@H](CO)C(=O)N[C@H](C(=O)N[C@@H](CC(N)=O)C(=O)N[C@H](C(=O)NCC(=O)N[C@@H](CO)C(=O)N[C@@H](CCCCN)C(=O)N[C@H](C(=O)N[C@@H](Cc1ccc(O)cc1)C(N)=O)[C@@H](C)O)C(C)C)[C@@H](C)O
notes: Acylated analogue of human amylin; also called compound 35

target: T1, rat amylin receptor (rat calcitonin …); test: SPA competition vs 125I-rat amylin, membranes with rat CTR + rat RAMP3 (Assay VI)

Row | IC50 [nM] | Binder
1 | 3.48 | B1
2 | 0.614 | B2
3 | 0.491 | B3
4 | 0.948 | B4

target: T2, rat calcitonin receptor; test: ratio IC50 rat calcitonin receptor / IC50 rat amylin receptor

Row | Ratio rCT/rAmylin binding | Binder
5 | 37.7 | B1
6 | 147 | B2
7 | 309 | B3
8 | 65.1 | B4

target: T3, human calcitonin receptor; test: ratio IC50 human calcitonin receptor / IC50 human amylin receptor
Method: The resulting pellet was resuspended, homogenized and centrifuged (20.000 rpm, 15 min) in a buffer containing 20 mM Na-HEPES and 0.1 mM EDTA (pH 7.4, buffer 2). The resulting pellet was resuspended in buffer 2 and protein concentration was measured (BCA protein Assay, Pierce). The homogenate was kept cold during the whole procedure. The membranes were kept at −80° C. until use. The assay was performed in a 384 well Optiplate (PerkinElmer) in a total volume of 40 ul. Membranes were mixed with SPA beads. Final concentration of membranes 35 ng/μL final and SPA beads was 0.05 mg/well. Test-compounds were dissolved in DMSO and further diluted in assay buffer (50 mM Hepes, pH 7.4, 1 mM CaCl2, 5 mM MgCl₂, 0.1% OA and 0.02% Tween20). […] The final mixture was incubated with shaking at 400 rpm for 120 min at 25° C. prior to centrifugation (1500 rpm, 10 min). Samples were analyzed on TopCounter™ (Packard). The IC₅₀ was calculated using (one site binding competition analysis) GraphPad Prism5 as a measure of receptor affinity.
Membranes were prepared in the following way; the cells were rinsed with PBS and incubated with Versene for approximately 5 min before harvesting. The cells were flushed with PBS and the cell-suspension was centrifuged for 5 min at 1000 rpm. Cells were homogenized (Ultrathurrax) in a buffer containing 20 mM Na-HEPES and 10 mM EDTA (pH 7.4) and centrifuged at 20.000 rpm for 15 min. The resulting pellet was resuspended, homogenized and centrifuged (20.000 rpm, 15 min) in a buffer containing 20 mM Na-HEPES and 0.1 mM EDTA (pH 7.4, buffer 2). The resulting pellet was resuspended in buffer 2 and protein concentration was measured (BCA protein Assay, Pierce). The homogenate was kept cold during the whole procedure. The membranes were kept at −80° C. until use. Assay was performed in a 384 well Optiplate (PerkinElmer) in a total volume of 40 ul. Membranes were mixed with SPA beads.

Row | Ratio hCT/hAmylin binding | Binder
9 | 56.5 | B1
10 | 41.3 | B2
11 | 47.5 | B3
12 | 50.3 | B4

target: T2, rat calcitonin receptor; test: SPA competition vs 125I-calcitonin, membranes with rat CTR (Assay VIII)

Row | IC50 [nM] | Binder
13 | 131 | B1
14 | 90.2 | B2
15 | 152 | B3
16 | 61.7 | B4
